One substance from patent US6358732 can be followed below.

The data set relates to CDF (CDE-binding factor). In words: cell_activity. Particulars: transient transfection NIH3T3, luciferase; indirect.

On to cdc25C promoter CDE-CHR region, for which the activity (fold growing/G0) was 17.5.
